{
  "source": "paper doi:10.1101/2022.11.05.515280",
  "key": {"[1]": {"target": "human Mcl-1 ΔPESTΔTM (human)", "assay": "NMR titration"}, "[2]": {"target": "human Mcl-1 ΔPESTΔTM (human)", "assay": "NMR titration", "remark": "listed apart in the source"}, "[3]": {"target": "human Mcl-1 ΔPESTΔTM (human)", "assay": "SEC + other: SAXS"}},
  "note": "Read-outs that look alike come from different tables or passages of the source.",
  "data": [
    {"molecule": "Mule BH3 peptide (MuleBH3)", "values": [
      {"measurement": "relative population of Mcl-1 bound, in the mix of three peptides", "setting": "[1]", "result": 55, "unit": "%"}
    ]},
    {"molecule": "DEMFSIIYKIREIADGLCLEVE", "note": "[TCTP BH3-like peptide D16I mutant (TCTP_(BH3D16I))]", "values": [
      {"measurement": "relative population of Mcl-1 bound, in the mix of three peptides", "setting": "[2]", "result": 45, "unit": "%"}
    ]},
    {"molecule": "DEMFSDIYKIREIADGLCLEVE", "note": "[TCTP BH3-like peptide (TCTPBH3)]", "values": [
      {"measurement": "Kd", "setting": "[2]", "result": 7.9, "unit": "µM"},
      {"measurement": "fold weaker relative affinity than TCTPBH3D16I and MuleBH3", "setting": "[2]", "result": "> 10", "unit": "fold"}
    ]},
    {"molecule": "full length human TCTP (Translationally Controlled Tumour Protein) (natural protein) MIIYRDLISHDEMFSDIYKIREIADGLCLEVEGKMVSRTEGNIDDSLIGGNASAEGPEGEGTESTVITGVDIVMNHHLQETSFTKEAYKKYIKDYMKSIKGKLEEQRPERVKPFMTGAAEQIKHILANFKNYQFFIGENMNPDGMVALLDYREDGVTPYMIFFKDGLEMEKC", "values": [
      {"measurement": "stoichiometry N", "setting": "[3]", "result": 1}
    ]}
  ]
}
